Assay results published in patent US20040176573A1.
Where two headings read alike, the source gives them in different places.

Legend:
HLA-A2 (human) [1] = target: HLA-A2 (human)
HLA-A2 (human) [2] = target: HLA-A2 (human); remark: listed apart in the source

For “HIV-1 pol476-484 (peptide; other documents disagree on this pair)”, the C50 (HLA-A2 (human) [1]) was 0.7 µM and the C50 (HLA-A2 (human) [2]) was 0.2 µM.
